Reference: patent US20200283482A1, “BICYCLIC PEPTIDE LIGAND PRR-A CONJUGATES AND USES THEREOF” (BicycleRD Limited, priority 2017, published 2020)
Starred links: 1 amine or outer side, 2 acyl side, 3 side chain; linkers in the order of their positions; H or OH if unused. Positions of bridges follow the written chain, without caps; N, C: chain ends. Non-standard residues stand in square brackets, D forms with d. Residues, ends and D or L forms follow the SMILES beside them. *: point of attachment. X14 = CCCOc1nc(NC(=O)CCCNC(=O)OCc2ccc(NC(=O)[C@H](CCCNC(N)=O)NC(=O)[C@@H](NC(=O)Cn3cc(CCC(=O)*)nn3)C(C)C)cc2)c2[nH]c(=O)n(Cc3ccc(OCCN(C)C)nc3)c2n1; X13 = CCOCc1nc2c(NC(=O)N(C)CCN(C)C(=O)OCc3ccc(NC(=O)[C@H](CCCNC(N)=O)NC(=O)[C@@H](NC(=O)Cn4cc(CCC(=O)*)nn4)C(C)C)cc3)nc3ccccc3c2n1CC(C)(C)O; X12 = CCOCc1nc2c(NC(=O)OCCN(C)C(=O)OCc3ccc(NC(=O)[C@H](CCCNC(N)=O)NC(=O)[C@@H](NC(=O)Cn4cc(CCC(=O)*)nn4)C(C)C)cc3)nc3ccccc3c2n1CC(C)(C)O; X7 = CCOCc1nc2c(NC(=O)CCCNC(=O)OCc3ccc(NC(=O)[C@H](CCCNC(N)=O)NC(=O)[C@@H](NC(=O)Cn4cc(CCC(=O)*)nn4)C(C)C)cc3)nc3ccccc3c2n1CC(C)(C)O; X16 = CCCOc1nc(NC(=O)CCCSSC(C)CCC(=O)*)c2[nH]c(=O)n(Cc3ccc(OCCN(C)C)nc3)c2n1; X15 = CCOCc1nc2c(NC(=O)CCCSSC(C)CCC(=O)*)nc3ccccc3c2n1CC(C)(C)O; 1Nal = N[C@@H](Cc1cccc2ccccc12)C(=O)O; TBMB = c1c(C[*:1])cc(C[*:3])cc1C[*:2]; Tle = CC(C)(C)[C@H](N)C(=O)O; βAla = NCCC(=O)O; Sar = CNCC(=O)O

Tests used:
Blood stability, mouse = type: in vitro ADME, CD-1 mouse; conditions: male, CD-1, mouse
Procedure: CD-1 mouse blood (n≥2, male, fasted overnight) is collected from animals housed at an internal facility. (EDTA-K2 is used as anticoagulant)
The test compounds and positive control stock solutions are prepared to 10 mM in DMSO or ultrapure water. Control compounds bisacodyl, enalapril and propantheline known to be metabolised by blood are also incubated alongside each batch of test compounds I-7, I-22, I-24, I-25, I-27, and I-29 to I-33. The dosing solutions of test compounds and controls are prepared by diluting the stock solution with 45% MeOH/H2O to achieve 100 uM. Test compound solutions (final incubation concentration=2 μM) are incubated with blood (final DMSO concentration≤1%) at six different time points (0, 1, 2, 4, 6 and 24 hours) in duplicate (n=2). The reaction is terminated by adding 100 uL ultra-pure water, mixing well, then adding 800 uL of 100% methanol containing 200 ng/mL tolbutamide and 200 ng/mL labetalol as internal standards. Samples are then vortexed and centrifuged at 3200×g for 20 minutes. Following centrifugation, the concentration of test compound in the supernatant is determined semi-quantitatively by LC-MS/MS. The percentage of test compound remaining at the individual time points relative to the 0 hour sample is then reported. The percent remaining of test compound after incubation in blood is calculated using following equation: Percent Remaining=100×(PAR at appointed incubation time/PAR at T0 time) where PAR is the peak area ratio of analyte versus internal standard (IS).

Plasma stability, cyno = type: in vitro ADME; conditions: cynomolgus monkey, plasma, pH 7.4
Procedure: (§1) The pooled frozen mouse, rat, dog, monkey or human plasma is thawed in a water bath at 37° C. prior to experiment. Plasma is centrifuged at 4000 rpm for 5 min and the clots are removed if any. […] For positive controls, 100 μM intermediate solution is prepared by diluting 20 μL of the stock solution with 180 μL 45% MeOH/H2O. […] For compounds I-7 to […]-17, […]-22, and […]-33, at each time point (0, 1, 2, 4, 6 and 24 hr), reactions were stopped by removing the plates from water bath and 200 μL 20 mM NH4OAC mix well first and then adding 800 μL of ice-cold stop solution (200 ng/mL Labetalol, 200 ng/mL Tolbutamide, 500 ng/mL N6-Ben and 40 mM DBAA in 100% Methanol). […] Sample plates were vortexed immediately on a plate shaker at 800 rpm for 10 min and then centrifuged at 4,000 rpm for 10 min. An aliquot of supernatant (200 μL) is transferred from each well before submitting to LC-MS/MS analysis. The percentage of test compound remaining at the individual time points relative to the 0 hour sample is calculated using following equation: Percent Remaining=100×(PAR at appointed incubation time/PAR at T0 time) where PAR is the peak area ratio of analyte versus internal standard (IS).

Plasma stability, mouse = type: in vitro ADME; conditions: mouse, plasma, pH 7.4
Procedure: as §1

Plasma stability, human = type: in vitro ADME; conditions: human, plasma, pH 7.4
Procedure: as §1

Plasma stability, rat = type: in vitro ADME; conditions: rat, plasma, pH 7.4
Procedure: as §1

SMILES | half-life at 2 μM (Blood stability, mouse) | half-life at 2 μM (Plasma stability, cyno) | half-life at 2 μM (Plasma stability, mouse) | half-life at 2 μM (Plasma stability, human) | half-life at 2 μM (Plasma stability, rat)
CCOCc1nc2c(NC(=O)N(C)CCN(C)C(=O)OCc3ccc(NC(=O)[C@H](CCCNC(N)=O)NC(=O)[C@@H](NC(=O)Cn4cc(CCC(=O)NCCC(=O)N(C)CC(=O)N(C)CC(=O)N(C)CC(=O)N(C)CC(=O)N(C)CC(=O)N(C)CC(=O)N(C)CC(=O)N(C)CC(=O)N(C)CC(=O)N(C)CC(=O)N[C@@H](C)C(=O)N[C@H]5CSCc6cc7cc(c6)CSC[C@H](NC(=O)[C@@H](C)NC(=O)[C@H](Cc6cccc8ccccc68)NC(=O)[C@H](CCC(=O)O)NC(=O)[C@H](CC(N)=O)NC(=O)[C@@H](C)NC5=O)C(=O)N[C@@H](CCC(=O)O)C(=O)N[C@@H](CC(=O)O)C(=O)N[C@@H](Cc5ccccc5)C(=O)N[C@@H](Cc5ccc(O)cc5)C(=O)N[C@@H](CC(=O)O)C(=O)N[C@@H](C(C)(C)C)C(=O)N[C@H](C(N)=O)CSC7)nn4)C(C)C)cc3)nc3ccccc3c2n1CC(C)(C)O [1-31] ({X13-βAla}-[Sar][Sar][Sar][Sar][Sar][Sar][Sar][Sar][Sar][Sar]AC[dA]NE[1Nal][dA]CEDFYD[Tle]C-NH2; linker 12-18-25 via TBMB) | 360 to 1440 min |  |  |  | 
CCOCc1nc2c(NC(=O)OCCN(C)C(=O)OCc3ccc(NC(=O)[C@H](CCCNC(N)=O)NC(=O)[C@@H](NC(=O)Cn4cc(CCC(=O)NCCC(=O)N(C)CC(=O)N(C)CC(=O)N(C)CC(=O)N(C)CC(=O)N(C)CC(=O)N(C)CC(=O)N(C)CC(=O)N(C)CC(=O)N(C)CC(=O)N(C)CC(=O)N[C@@H](C)C(=O)N[C@H]5CSCc6cc7cc(c6)CSC[C@H](NC(=O)[C@@H](C)NC(=O)[C@H](Cc6cccc8ccccc68)NC(=O)[C@H](CCC(=O)O)NC(=O)[C@H](CC(N)=O)NC(=O)[C@@H](C)NC5=O)C(=O)N[C@@H](CCC(=O)O)C(=O)N[C@@H](CC(=O)O)C(=O)N[C@@H](Cc5ccccc5)C(=O)N[C@@H](Cc5ccc(O)cc5)C(=O)N[C@@H](CC(=O)O)C(=O)N[C@@H](C(C)(C)C)C(=O)N[C@H](C(N)=O)CSC7)nn4)C(C)C)cc3)nc3ccccc3c2n1CC(C)(C)O [I-32] ({X12-βAla}-[Sar][Sar][Sar][Sar][Sar][Sar][Sar][Sar][Sar][Sar]AC[dA]NE[1Nal][dA]CEDFYD[Tle]C-NH2; linker 12-18-25 via TBMB) | < 120 min | > 1440 min | < 120 min | > 1440 min | < 120 min
CCOCc1nc2c(NC(=O)N(C)CCN(C)C(=O)OCc3ccc(NC(=O)[C@H](CCCNC(N)=O)NC(=O)[C@@H](NC(=O)Cn4cc(CCC(=O)NCCC(=O)N(C)CC(=O)N(C)CC(=O)N(C)CC(=O)N(C)CC(=O)N(C)CC(=O)N(C)CC(=O)N(C)CC(=O)N(C)CC(=O)N(C)CC(=O)N(C)CC(=O)N[C@@H](C)C(=O)N[C@H]5CSCc6cc7cc(c6)CSC[C@H](NC(=O)[C@@H](C)NC(=O)[C@H](Cc6cccc8ccccc68)NC(=O)[C@H](CCC(=O)O)NC(=O)[C@H](CC(N)=O)NC(=O)[C@@H](C)NC5=O)C(=O)N[C@@H](CCC(=O)O)C(=O)N[C@@H](CC(=O)O)C(=O)N[C@@H](Cc5ccccc5)C(=O)N[C@@H](Cc5ccc(O)cc5)C(=O)N[C@@H](CC(=O)O)C(=O)N[C@@H](C(C)(C)C)C(=O)N[C@H](C(N)=O)CSC7)nn4)C(C)C)cc3)nc3ccccc3c2n1CC(C)(C)O [I-31] ({X13-βAla}-[Sar][Sar][Sar][Sar][Sar][Sar][Sar][Sar][Sar][Sar]AC[dA]NE[1Nal][dA]CEDFYD[Tle]C-NH2; linker 12-18-25 via TBMB) |  | > 1440 min | > 1440 min | > 1440 min | > 1440 min
CCOCc1nc2c(NC(=O)CCCNC(=O)OCc3ccc(NC(=O)[C@H](CCCNC(N)=O)NC(=O)[C@@H](NC(=O)Cn4cc(CCC(=O)NCCC(=O)N(C)CC(=O)N(C)CC(=O)N(C)CC(=O)N(C)CC(=O)N(C)CC(=O)N(C)CC(=O)N(C)CC(=O)N(C)CC(=O)N(C)CC(=O)N(C)CC(=O)N[C@@H](C)C(=O)N[C@H]5CSCc6cc7cc(c6)CSC[C@H](NC(=O)[C@@H](C)NC(=O)[C@H](Cc6cccc8ccccc68)NC(=O)[C@H](CCC(=O)O)NC(=O)[C@H](CC(N)=O)NC(=O)[C@@H](C)NC5=O)C(=O)N[C@@H](CCC(=O)O)C(=O)N[C@@H](CC(=O)O)C(=O)N[C@@H](Cc5ccccc5)C(=O)N[C@@H](Cc5ccc(O)cc5)C(=O)N[C@@H](CC(=O)O)C(=O)N[C@@H](C(C)(C)C)C(=O)N[C@H](C(N)=O)CSC7)nn4)C(C)C)cc3)nc3ccccc3c2n1CC(C)(C)O [I-27] ({X7-βAla}-[Sar][Sar][Sar][Sar][Sar][Sar][Sar][Sar][Sar][Sar]AC[dA]NE[1Nal][dA]CEDFYD[Tle]C-NH2; linker 12-18-25 via TBMB) | 120 to 360 min | > 1440 min | < 120 min | > 1440 min | > 1440 min
CCCOc1nc(NC(=O)CCCSSC(C)CCC(=O)NCCC(=O)N(C)CC(=O)N(C)CC(=O)N(C)CC(=O)N(C)CC(=O)N(C)CC(=O)N(C)CC(=O)N(C)CC(=O)N(C)CC(=O)N(C)CC(=O)N(C)CC(=O)N[C@@H](C)C(=O)N[C@H]2CSCc3cc4cc(c3)CSC[C@H](NC(=O)[C@@H](C)NC(=O)[C@H](Cc3cccc5ccccc35)NC(=O)[C@H](CCC(=O)O)NC(=O)[C@H](CC(N)=O)NC(=O)[C@@H](C)NC2=O)C(=O)N[C@@H](CCC(=O)O)C(=O)N[C@@H](CC(=O)O)C(=O)N[C@@H](Cc2ccccc2)C(=O)N[C@@H](Cc2ccc(O)cc2)C(=O)N[C@@H](CC(=O)O)C(=O)N[C@@H](C(C)(C)C)C(=O)N[C@H](C(N)=O)CSC4)c2[nH]c(=O)n(Cc3ccc(OCCN(C)C)nc3)c2n1 (stereo partly drawn) [I-23] ({X16-βAla}-[Sar][Sar][Sar][Sar][Sar][Sar][Sar][Sar][Sar][Sar]AC[dA]NE[1Nal][dA]CEDFYD[Tle]C-NH2; linker 12-18-25 via TBMB) |  | < 120 min | < 120 min | < 120 min | < 120 min
CCCOc1nc(NC(=O)CCCNC(=O)OCc2ccc(NC(=O)[C@H](CCCNC(N)=O)NC(=O)[C@@H](NC(=O)Cn3cc(CCC(=O)NCCC(=O)N(C)CC(=O)N(C)CC(=O)N(C)CC(=O)N(C)CC(=O)N(C)CC(=O)N(C)CC(=O)N(C)CC(=O)N(C)CC(=O)N(C)CC(=O)N(C)CC(=O)N[C@@H](C)C(=O)N[C@H]4CSCc5cc6cc(c5)CSC[C@H](NC(=O)[C@@H](C)NC(=O)[C@H](Cc5cccc7ccccc57)NC(=O)[C@H](CCC(=O)O)NC(=O)[C@H](CC(N)=O)NC(=O)[C@@H](C)NC4=O)C(=O)N[C@@H](CCC(=O)O)C(=O)N[C@@H](CC(=O)O)C(=O)N[C@@H](Cc4ccccc4)C(=O)N[C@@H](Cc4ccc(O)cc4)C(=O)N[C@@H](CC(=O)O)C(=O)N[C@@H](C(C)(C)C)C(=O)N[C@H](C(N)=O)CSC6)nn3)C(C)C)cc2)c2[nH]c(=O)n(Cc3ccc(OCCN(C)C)nc3)c2n1 [I-26] ({X14-βAla}-[Sar][Sar][Sar][Sar][Sar][Sar][Sar][Sar][Sar][Sar]AC[dA]NE[1Nal][dA]CEDFYD[Tle]C-NH2; linker 12-18-25 via TBMB) |  | < 120 min | < 120 min | < 120 min | < 120 min
CCOCc1nc2c(NC(=O)CCCSSC(C)CCC(=O)NCCC(=O)N(C)CC(=O)N(C)CC(=O)N(C)CC(=O)N(C)CC(=O)N(C)CC(=O)N(C)CC(=O)N(C)CC(=O)N(C)CC(=O)N(C)CC(=O)N(C)CC(=O)N[C@@H](C)C(=O)N[C@H]3CSCc4cc5cc(c4)CSC[C@H](NC(=O)[C@@H](C)NC(=O)[C@H](Cc4cccc6ccccc46)NC(=O)[C@H](CCC(=O)O)NC(=O)[C@H](CC(N)=O)NC(=O)[C@@H](C)NC3=O)C(=O)N[C@@H](CCC(=O)O)C(=O)N[C@@H](CC(=O)O)C(=O)N[C@@H](Cc3ccccc3)C(=O)N[C@@H](Cc3ccc(O)cc3)C(=O)N[C@@H](CC(=O)O)C(=O)N[C@@H](C(C)(C)C)C(=O)N[C@H](C(N)=O)CSC5)nc3ccccc3c2n1CC(C)(C)O (stereo partly drawn) [I-28] ({X15-βAla}-[Sar][Sar][Sar][Sar][Sar][Sar][Sar][Sar][Sar][Sar]AC[dA]NE[1Nal][dA]CEDFYD[Tle]C-NH2; linker 12-18-25 via TBMB) |  | 120 to 360 min | < 120 min | < 120 min | < 120 min
